Ends that are not written are not given here. * marks the point of attachment. Biotin = O=C1N[C@H]2[C@H](CS[C@H]2CCCCC(=O)*)N1
Key:
[1] = target: GST-PTN-4 PDZ domain fusion protein (protein-tyrosine phosphatase meg1 AA774-862; PDZ domain 1 of 1) (UniProt P08515 1-218 = GST); assay: A/G assays
[2] = target: T1, GST-RGS12 PDZ domain fusion protein (human regulator of G-protein signalling 12 AA35-103; PDZ domain 1 of 1) (human, UniProt P08515 1-218 = GST); assay: A/G assays
T1 construct: also called RSG12
T1 sequence (P08515 1-218, tags or fused parts left off): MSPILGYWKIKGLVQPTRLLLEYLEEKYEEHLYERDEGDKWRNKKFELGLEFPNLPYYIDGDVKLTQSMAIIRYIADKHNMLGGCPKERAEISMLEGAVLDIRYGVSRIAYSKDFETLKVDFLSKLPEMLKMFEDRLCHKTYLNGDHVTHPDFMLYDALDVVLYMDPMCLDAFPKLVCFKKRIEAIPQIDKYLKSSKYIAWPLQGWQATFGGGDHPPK

[3] = target: T2, GST-TAX2 PDZ domain fusion protein (human tax interaction protein 2 AA54-140; PDZ domain 1 of 1) (human, UniProt P08515 1-218 = GST); assay: A/G assays
T2 construct: also called TX 2
T2 sequence (P08515 1-218, tags or fused parts left off): as above

[4] = target: T3, GST-KIAA0559 PDZ domain fusion protein (KIAA0559 AA766-870; PDZ1 of 1) (UniProt P08515 1-218 = GST); assay: A/G assays
T3 construct: also called K559
T3 sequence (P08515 1-218, tags or fused parts left off): as above

[5] = target: T4, GST-KIAA0303 PDZ domain fusion protein (KIAA0303 AA652-742; PDZ domain 1 of 1) (UniProt P08515 1-218 = GST); assay: A/G assays
T4 construct: also called K303

[6] = target: T5, GST-MPP1 PDZ domain fusion protein (55 Kd erythrocyte membrane protein AA101-186; PDZ domain 1 of 1) (UniProt P08515 1-218 = GST); assay: A/G assays
T5 sequence (P08515 1-218, tags or fused parts left off): as above

[7] = target: T6, GST-TAX33 PDZ domain fusion protein (tax interaction protein 33 AA73-162; PDZ domain 1 of 1) (UniProt P08515 1-218 = GST); assay: A/G assays
T6 construct: also called TX33
T6 sequence (P08515 1-218, tags or fused parts left off): as above

[8] = target: GST-NOS1 PDZ domain fusion protein (human neuronal nitric oxide synthase; PDZ domain 1 of 1) (human, UniProt P08515 1-218 = GST); assay: A/G assays
Chain of GST-NOS1 PDZ domain fusion protein (human neuronal nitric oxide synthase; PDZ domain 1 of 1) (P08515 1-218, tags or fused parts left off): as above

[9] = target: GST-LIMK2 PDZ domain fusion protein (human LIM domain kinase 2 AA185-275; PDZ domain 1 of 1) (human, UniProt P08515 1-218 = GST); assay: A/G assays
Chain of GST-LIMK2 PDZ domain fusion protein (human LIM domain kinase 2 AA185-275; PDZ domain 1 of 1) (P08515 1-218, tags or fused parts left off): as above

[10] = target: T7, GST-CASK PDZ domain fusion protein (CASK AA495-584; PDZ domain 1 of 1) (mouse, UniProt P08515 1-218 = GST); assay: A/G assays
T7 construct: also called mCASK
T7 sequence (P08515 1-218, tags or fused parts left off): as above

[11] = target: T8, GST-prIL16 PDZ domain fusion protein (putative interleukin 16 precursor AA170-383; PDZ domains 1-2 of 2) (UniProt P08515 1-218 = GST); assay: A/G assays
T8 sequence (P08515 1-218, tags or fused parts left off): as above

[12] = target: T9, GST-SYN1a PDZ domain fusion protein (alpha1-syntrophin AA96-189; PDZ domain 1 of 1) (UniProt P08515 1-218 = GST); assay: A/G assays
T9 construct: also called SYN 1 alpha; SYNTR 1 alpha
T9 sequence (P08515 1-218, tags or fused parts left off): as above

[13] = target: T10, GST-CBP PDZ domain fusion protein (Cytohesin binding protein HE AA85-175; PDZ domain 1 of 1) (UniProt P08515 1-218 = GST); assay: A/G assays
T10 construct: also called Prot
T10 sequence (P08515 1-218, tags or fused parts left off): as above

[14] = target: T11, GST-TIAM1 PDZ domain fusion protein (T-lymphoma invasion and metastasis inducing protein 1 AA1001-1088); PDZ 1 … (UniProt P08515 1-218 = GST); assay: A/G assays
T11 sequence (P08515 1-218, tags or fused parts left off): as above

[15] = target: T12, GST-DVL1 PDZ domain fusion protein (human dishevelled segment polarity protein homolog AA248-340); PDZ domain … (human, UniProt P08515 1-218 = GST); assay: A/G assays
[16] = target: T13, GST-TAX40 PDZ domain fusion protein (human tax interaction protein 40 AA35-137; PDZ domain 1 of 1) (human, UniProt P08515 1-218 = GST); assay: A/G assays
T13 construct: also called TX 40
T13 sequence (P08515 1-218, tags or fused parts left off): as above

[17] = target: T14, GST-MPP2 PDZ domain fusion protein (maguk p55 subfamily member 2 (DLG2) AA185-273; PDZ domain 1 of 1) (UniProt P08515 1-218 = GST); assay: A/G assays
T14 construct: also called MMP2
T14 sequence (P08515 1-218, tags or fused parts left off): as above

[18] = target: GST-LIM PDZ domain fusion protein (Human LIM protein AA29-112; PDZ domain 1 of 1) (human, UniProt P08515 1-218 = GST); assay: A/G assays
Chain of GST-LIM PDZ domain fusion protein (Human LIM protein AA29-112; PDZ domain 1 of 1) (P08515 1-218, tags or fused parts left off): as above

[19] = target: T15, GST-KIAA0316 PDZ domain fusion protein (KIAA0316 AA197-284; PDZ domain 1 of 1) (UniProt P08515 1-218 = GST); assay: A/G assays
T15 construct: also called K316
T15 sequence (P08515 1-218, tags or fused parts left off): as above

[20] = target: T16, GST-AF6 PDZ domain fusion protein (af-6 protein AA985-1077; PDZ domain 1 of 1) (UniProt P08515 1-218 = GST); assay: A/G assays
T16 sequence (P08515 1-218, tags or fused parts left off): as above

[21] = target: GST-MINT3 PDZ domain fusion protein (human MINT3 AA11-52; PDZ domain 1 of 1) (human, UniProt P08515 1-218 = GST); assay: A/G assays
Chain of GST-MINT3 PDZ domain fusion protein (human MINT3 AA11-52; PDZ domain 1 of 1) (P08515 1-218, tags or fused parts left off): as above

[22] = target: T17, GST-TAX43 PDZ domain fusion protein (human tax interaction protein 43 AA15-85; PDZ domain 1 of 1) (human, UniProt P08515 1-218 = GST); assay: A/G assays
T17 construct: also called TX 43
T17 sequence (P08515 1-218, tags or fused parts left off): as above

[23] = target: T18, GST-PSD95 PDZ domain fusion protein (human post-synaptic density protein 95 AA387-724; PDZ domains 1-3 of 3) (human, UniProt P08515 1-218 = GST); assay: G assay, peptide titrated on immobilized GST-PDZ, saturation fit (apparent affinity)
Excerpt: (§1) FIGS. 2A and 2B show the Apparent Affinity Determination for PDZ-Ligand Interactions. […] The binding to GST alone (<0.2 OD units) was subtracted from the binding to the fusion proteins to obtain the signal at each peptide concentration.

[24] = target: T19, GST-NeDLG PDZ domain fusion protein (presynaptic protein sao102, neuroendocrine-dlg; PDZ domains 1-2 of 3) (UniProt P08515 1-218 = GST); assay: as above
T19 construct: also called NeDLG1
T19 sequence (P08515 1-218, tags or fused parts left off): as above
Excerpt: as §1

[25] = target: T20, GST-41.8 kD PDZ domain fusion protein (hypothetical 41.8 kD protein AA4-85; PDZ domain 1 of 1) (UniProt P08515 1-218 = GST); assay: A/G assays
T20 construct: also called hypoth

[26] = target: T18, GST-PSD95 PDZ domain fusion protein …; assay: A/G assays
[27] = target: T19, GST-NeDLG PDZ domain fusion protein …; assay: A/G assays
[28] = target: T5, GST-MPP1 PDZ domain fusion protein (55 …); assay: G assay
[29] = target: T8, GST-prIL16 PDZ domain fusion protein …; assay: G assay
[30] = target: T1, GST-RGS12 PDZ domain fusion protein …; assay: A assay
[31] = target: T5, GST-MPP1 PDZ domain fusion protein (55 …); assay: A assay
[32] = target: T20, GST-41.8 kD PDZ domain fusion protein …; assay: A assay
[33] = target: T8, GST-prIL16 PDZ domain fusion protein …; assay: A assay
[34] = target: T9, GST-SYN1a PDZ domain fusion protein …; assay: A assay
[35] = target: T11, GST-TIAM1 PDZ domain fusion protein …; assay: A assay
[36] = target: T12, GST-DVL1 PDZ domain fusion protein …; assay: A assay
[37] = target: T13, GST-TAX40 PDZ domain fusion protein …; assay: A assay
[38] = target: T16, GST-AF6 PDZ domain fusion protein (af-6 …); assay: A assay
[39] = target: T17, GST-TAX43 PDZ domain fusion protein …; assay: A assay
[40] = target: T18, GST-PSD95 PDZ domain fusion protein …; assay: A and G assays
[41] = target: T7, GST-CASK PDZ domain fusion protein …; assay: G assay
[42] = target: T19, GST-NeDLG PDZ domain fusion protein …; assay: G assay

Chain of GST-PTN-4 PDZ domain fusion protein (protein-tyrosine phosphatase meg1 AA774-862; PDZ domain 1 of 1) (P08515 1-218, tags or fused parts left off): as above

Row | Binder | binding result [1] | binding result [2] | binding result [3] | binding result [4] | binding result [5] | binding result [7] | binding result [8] | binding result [9] | binding result [10] | binding result [12] | binding result [13] | binding result [14] | binding result [15] | binding result [16] | binding result [17] | binding result [18] | binding result [19] | binding result [20] | binding result [21] | binding result [22] | further results
1 | Biotin-KDITSDSENSNFRNEIQSLV [CD95 (Apo-1/Fas) C-terminal PL peptide AA13L, biotinylated] | no binding | no binding | no binding | no binding | no binding | no binding | no binding | no binding | no binding | no binding | no binding | no binding | no binding | no binding | no binding | no binding | no binding | no binding | no binding | no binding | binding result [6]: no binding; binding result [11]: no binding; Kd [23]: 85 µM; Kd [24]: 54 µM
2 | Biotin-QFMTADETRNLQNVDMKIGV [CD44 (long form) C-terminal PL peptide AA9L, biotinylated] | no binding | no binding | no binding | no binding | no binding | no binding | no binding | no binding | no binding | no binding | no binding | no binding | no binding | no binding | no binding | no binding | no binding | no binding | no binding | no binding | binding result [25]: no binding; binding result [26]: no binding; binding result [27]: no binding; binding result [28]: binds; binding result [29]: binds
3 | Biotin-SSAKSSNKNKKNKDKEYYV [Neurexin C-terminal PL peptide AA38L, biotinylated] | no binding | – | no binding | no binding | no binding | no binding | no binding | no binding | – | – | no binding | – | – | – | no binding | no binding | no binding | – | no binding | – | binding result [30]: binds; binding result [31]: binds; binding result [32]: binds; binding result [33]: binds; binding result [34]: binds; binding result [35]: binds; binding result [36]: binds; binding result [37]: binds; binding result [38]: binds; binding result [39]: binds; binding result [40]: binds; binding result [41]: binds; binding result [42]: binds
